# Reference: US20160193299A1, “MODIFIED NUCLEOSIDE, NUCLEOTIDE, AND NUCLEIC ACID COMPOSITIONS” (Moderna Therapeutics, Inc., priority 2011, published 2016)
# B1: G-CSF unmodified: unmodified G-CSF mRNA SEQ ID NO: 6, Cap1 (nucleic acid, listed as Homo sapiens)
# chain: GGGAAAUAAGAGAGAAAAGAAGAGUAAGAAGAAAUAUAAGAGCCACCAUGGCCGGUCCCGCGACCCAAAGCCCCAUGAAACUUAUGGCCCUGCAGUUGCUGCUUUGGCACUCGGCCCUCUGGACAGUCCAAGAAGCGACUCCUCUCGGACCUGCCUCAUCGUUGCCGCAGUCAUUCCUUUUGAAGUGUCUGGAGCAGGUGCGAAAGAUUCAGGGCGAUGGAGCCGCACUCCAAGAGAAGCUCUGCGCGACAUACAAACUUUGCCAUCCCGAGGAGCUCGUACUGCUCGGGCACAGCUUGGGGAUUCCCUGGGCUCCUCUCUCGUCCUGUCCGUCGCAGGCUUUGCAGUUGGCAGGGUGCCUUUCCCAGCUCCACUCCGGUUUGUUCUUGUAUCAGGGACUGCUGCAAGCCCUUGAGGGAAUCUCGCCAGAAUUGGGCCCGACGCUGGACACGUUGCAGCUCGACGUGGCGGAUUUCGCAACAACCAUCUGGCAGCAGAUGGAGGAACUGGGGAUGGCACCCGCGCUGCAGCCCACGCAGGGGGCAAUGCCGGCCUUUGCGUCCGCGUUUCAGCGCAGGGCGGGUGGAGUCCUCGUAGCGAGCCACCUUCAAUCAUUUUUGGAAGUCUCGUACCGGGUGCUGAGACAUCUUGCGCAGCCGUGAAGCGCUGCCUUCUGCGGGGCUUGCCUUCUGGCCAUGCCCUUCUUCUCUCCCUUGCACCUGUACCUCUUGGUCUUUGAAUAAAGCCUGAGUAGGAAG
# modifications: Cap1
# B2: VEGF-A: modified mRNA VEGF-A SEQ ID NO: 19, Cap1, fully modified with 5-methylcytosine and pseudouridine, Lipofectamine2000 complexed (nucleic acid, listed as Homo sapiens)
# sense: GGGAAAUAAGAGAGAAAAGAAGAGUAAGAAGAAAUAUAAGAGCCACCAUGAACUUUCUCUUGUCAUGGGUGCACUGGAGCCUUGCGCUGCUGCUGUAUCUUCAUCACGCUAAGUGGAGCCAGGCCGCACCCAUGGCGGAGGGUGGCGGACAGAAUCACCACGAAGUAGUCAAAUUCAUGGACGUGUACCAGAGGUCGUAUUGCCAUCCGAUUGAAACUCUUGUGGAUAUCUUUCAAGAAUACCCCGAUGAAAUCGAGUACAUUUUCAAACCGUCGUGUGUCCCUCUCAUGAGGUGCGGGGGAUGCUGCAAUGAUGAAGGGUUGGAGUGUGUCCCCACGGAGGAGUCGAAUAUCACAAUGCAAAUCAUGCGCAUCAAACCACAUCAGGGUCAGCAUAUUGGAGAGAUGUCCUUUCUCCAGCACAACAAAUGUGAGUGUAGACCGAAGAAGGACCGAGCCCGACAGGAAAACCCAUGCGGACCGUGCUCCGAGCGGCGCAAACACUUGUUCGUACAAGACCCCCAGACAUGCAAGUGCUCAUGUAAGAAUACCGAUUCGCGGUGUAAGGCGAGACAGCUGGAAUUGAACGAGCGCACGUGUAGGUGCGACAAGCCUAGACGGUGAGCUGCCUUCUGCGGGGCUUGCCUUCUGGCCAUGCCCUUCUUCUCUCCCUUGCACCUGUACCUCUUGGUCUUUGAAUAAAGCCUGAGUAGGAAG
# modifications: Cap1, polyA, 5mC/pseudoU, Lipofectamine2000 complexed
# How the values were obtained:
# [1] = tested on: HEK293A; test: Example 44 signal sequence exchange study, secreted G-CSF ELISA; type: cell-based, human; settings: 293A, 250 ng modified mRNA, supernatant after 24 hrs
# Description: (§1) These variants included the G-CSF constructs encoding either the wild-type N terminal secretory signal peptide sequence ([…]; SEQ ID NO: 21), no secretory signal peptide sequence, or secretory signal peptide sequences taken from other mRNAs. These included sequences where the wild type GCSF signal peptide sequence was replaced with the signal peptide sequence of either: human α-1-anti trypsin (AAT) ([…]; SEQ ID NO: 22), human Factor IX (FIX) ([…]; SEQ ID NO: 23), human Prolactin (Prolac) ([…]; SEQ ID NO: 24), or human Albumin (Alb) ([…]; SEQ ID NO: 25).
# (§2) 250 ng of modified mRNA encoding each G-CSF variant was transfected into HEK293A (293A in the table), mouse myoblast (MM in the table) (C2C12, CRL-1772, ATCC) and rat myoblast (RM in the table) (L6 line, CRL-1458, ATCC) cell lines in a 24 well plate using 1 ul of Lipofectamine 2000 (Life Technologies), each well containing 300,000 cells. […] The data shown in Table 68 reveal that cells transfected with G-CSF mmRNA encoding the Albumin signal peptide secrete at least 12 fold more G-CSF protein than its wild type counterpart.
# [2] = tested on: mouse myoblast (C2C12); test: as above; type: cell-based; settings: MM, 250 ng modified mRNA, supernatant after 24 hrs
# Description: as §1, §2
# [3] = tested on: rat myoblast (L6 line); test: as above; type: cell-based; settings: RM, 250 ng modified mRNA, supernatant after 24 hrs
# Description: as §1, §2
# [4] = tested on: Human primary foreskin fibroblasts (BJ fibroblasts); test: Innate immune response transcripts in BJ fibroblasts, single transfection (qPCR); type: cell-based; settings: 250 ng, 18 hours
# Method: The cells were harvested after 18 hours, the total RNA was isolated and DNASE® treated using the RNeasy micro kit (catalog #74004) following the manufacturer's protocol. 100 ng of total RNA was used for cDNA synthesis using High Capacity cDNA Reverse Transcription kit (catalog #4368814) following the manufacturer's protocol. The cDNA was then analyzed for the expression of innate immune response genes by quantitative real time PCR using SybrGreen in a Biorad CFX 384 instrument following manufacturer's protocol. […] In the table, the panel of standard metrics includes: RIG-I is retinoic acid inducible gene 1, IL6 is interleukin-6, OAS-1 is oligoadenylate synthetase 1, IFNb is interferon-beta, AIM2 is absent in melanoma-2, IFIT-1 is interferon-induced protein with tetratricopeptide repeats 1, PKR is protein kinase R, TNFa is tumor necrosis factor alpha and IFNa is interferon alpha.
# [5] = tested on: Human primary foreskin fibroblasts (BJ fibroblasts); test: Innate immune response in BJ fibroblasts, repeat transfection: cytokine response; type: cell-based
# [6] = tested on: Female BALB/C mice; test: In vivo detection of innate immune response: human G-CSF and mouse IFN-alpha in serum after I.M. injection
# Method: Blood is collected at 8 hours after dosing and using ELISA the protein levels of G-CSF and interferon-alpha (IFN-alpha) is determined by ELISA and are shown in Table 81.
# [7] = Stability of modified RNA on storage (gel electrophoresis); type: physicochemical; settings: gel electrophoresis
# Method: Stability experiments were conducted to obtain a better understanding of storage conditions to retain the integrity of modified RNA. […] After the mRNA had been stored for 0 hours, 2 hours, 6 hours, 24 hours, 48 hours, 5 days and 14 days, the mRNA was analyzed by gel electrophoresis using a Bio-Rad EXPERION′ system. The modified, unmodified and lipoplexed G-CSF mRNA was also stored in RNASTABLE® (Biomatrica, Inc. San Diego, Calif.) at 40° C. or water at −80° C. or 40° C. for 35 days before being analyzed by gel electrophoresis.
# mRNA samples stored at 4° C., 25° C. and 37° C. were stored in 1× TE buffer or the formulation buffer (150 mM sodium chloride, 2 mM calcium chloride, 2 mM phosphate, 0.5 mM EDTA at a pH of 6.5). The mRNA stored at 4° C. was stable to at least 60 days in both the TE and formulation buffer. At 25° C. the mRNA in formulation buffer was stable out to 14 days and the TE buffer was stable out to at least 6 days. Storage of mRNA in the formulation buffer at 37° C. was stable to 6 days compared to the TE buffer which was stable only until 4 days.
# [8] = tested on: mice; test: In vivo cytokine expression study (serum IFN-alpha); settings: mouse serum; I.M. 200 ug mRNA; after 8 hours
# Method: After 8 hours serum was collected from the mice and analyzed for interferon-alpha (IFN-alpha) expression.
# [9] = tested on: HEK293 cells; test: In vitro expression of VEGF modified mRNA (ELISA); type: cell-based
molecule,measurement,setting,value
Albumin,secreted G-CSF protein,[1],122050 pg/mL
same,secreted G-CSF protein,[2],81050 pg/mL
same,secreted G-CSF protein,[3],173300 pg/mL
"Natural Luciferase: natural luciferase mRNA SEQ ID NO: 16, Cap1",AIM2 transcript level,[4],0.251 fold-induction relative to HPRT
same,IFIT-1 transcript level,[4],151.218 fold-induction relative to HPRT
same,IFNa transcript level,[4],0.067 fold-induction relative to HPRT
same,IFNb transcript level,[4],11.404 fold-induction relative to HPRT
same,IL6 transcript level,[4],20.6 fold-induction relative to HPRT
same,OAS-1 transcript level,[4],20.778 fold-induction relative to HPRT
same,PKR transcript level,[4],16.001 fold-induction relative to HPRT
same,RIG-I transcript level,[4],71.5 fold-induction relative to HPRT
same,TNFa transcript level,[4],0.526 fold-induction relative to HPRT
Prolactin,secreted G-CSF protein,[1],7875 pg/mL
same,secreted G-CSF protein,[2],1525 pg/mL
same,secreted G-CSF protein,[3],9800 pg/mL
α-1-anti trypsin,secreted G-CSF protein,[1],9950 pg/mL
same,secreted G-CSF protein,[2],5000 pg/mL
same,secreted G-CSF protein,[3],8475 pg/mL
B1,IFN-beta,"[5]; 250 ng transfected daily for 5 days, 6 hours",0 pg/mL
same,IL-6,"[5]; daily transfection, 6 hours",3596 pg/mL
same,IFN-beta,"[5]; daily transfection, Day 1",1363 pg/mL
same,IL-6,"[5]; daily transfection, Day 1",15207 pg/mL
same,IFN-beta,"[5]; daily transfection, Day 2",238 pg/mL
same,IL-6,"[5]; daily transfection, Day 2",12415 pg/mL
same,IFN-beta,"[5]; daily transfection, Day 3",225 pg/mL
same,IL-6,"[5]; daily transfection, Day 3",5017 pg/mL
same,IFN-beta,"[5]; daily transfection, Day 4",363 pg/mL
same,IL-6,"[5]; daily transfection, Day 4",4267 pg/mL
same,IFN-beta,"[5]; daily transfection, Day 5",225 pg/mL
same,IL-6,"[5]; daily transfection, Day 5",3094 pg/mL
same,PC Ratio,"[6]; Protein:Cytokine ratio, G-CSF / IFN-alpha in mouse serum",9
same,G-CSF protein,"[6]; human G-CSF in mouse serum, I.M., 200 ug/mouse mRNA (R848 75 ug) in 5% sucrose, 8 hours after dosing",605.6 pg/mL
same,IFN-alpha expression,"[6]; mouse IFN-alpha in serum, I.M., 200 ug/mouse mRNA (R848 75 ug), 8 hours after dosing",67.01 pg/mL
same,stable out to (storage time),[7]; stored at 25 C,48 h
same,stable out to (storage time),[7]; stored at 37 C,6 h
same,stable out to (storage time),[7]; stored at 50 C,2 h
same,IFN-alpha,[8],67.012 pg/mL
B2,Protein,[9]; amount transfected 2 pg,0 pg/mL
same,Protein,[9]; amount transfected 10 pg,0 pg/mL
same,Protein,[9]; amount transfected 39 pg,0 pg/mL
same,Protein,[9]; amount transfected 156 pg,189.6 pg/mL
same,Protein,[9]; amount transfected 625 pg,2321.23 pg/mL
same,Protein,[9]; amount transfected 2.5 ng,10038 pg/mL
same,Protein,[9]; amount transfected 10 ng,10495 pg/mL
same,Protein,[9]; amount transfected 610 fg,0 pg/mL
